The target in one assay is T1, anti-PTK7 antibody Ab181.
T1 construct: Unmasked parent IgG1kappa; also called Ab181 IgG1kappa
Kind of assay: phage display selection of peptide binders of Ab181 (Screen 2, XnCXnCXn library).

The target of assay [1] is T2, PTK7 on PTK7 positive cell line SaOS-2 (osteosarcoma) (UniProt Q13308 31-1070, limits assumed).
T2 sequence (looked up): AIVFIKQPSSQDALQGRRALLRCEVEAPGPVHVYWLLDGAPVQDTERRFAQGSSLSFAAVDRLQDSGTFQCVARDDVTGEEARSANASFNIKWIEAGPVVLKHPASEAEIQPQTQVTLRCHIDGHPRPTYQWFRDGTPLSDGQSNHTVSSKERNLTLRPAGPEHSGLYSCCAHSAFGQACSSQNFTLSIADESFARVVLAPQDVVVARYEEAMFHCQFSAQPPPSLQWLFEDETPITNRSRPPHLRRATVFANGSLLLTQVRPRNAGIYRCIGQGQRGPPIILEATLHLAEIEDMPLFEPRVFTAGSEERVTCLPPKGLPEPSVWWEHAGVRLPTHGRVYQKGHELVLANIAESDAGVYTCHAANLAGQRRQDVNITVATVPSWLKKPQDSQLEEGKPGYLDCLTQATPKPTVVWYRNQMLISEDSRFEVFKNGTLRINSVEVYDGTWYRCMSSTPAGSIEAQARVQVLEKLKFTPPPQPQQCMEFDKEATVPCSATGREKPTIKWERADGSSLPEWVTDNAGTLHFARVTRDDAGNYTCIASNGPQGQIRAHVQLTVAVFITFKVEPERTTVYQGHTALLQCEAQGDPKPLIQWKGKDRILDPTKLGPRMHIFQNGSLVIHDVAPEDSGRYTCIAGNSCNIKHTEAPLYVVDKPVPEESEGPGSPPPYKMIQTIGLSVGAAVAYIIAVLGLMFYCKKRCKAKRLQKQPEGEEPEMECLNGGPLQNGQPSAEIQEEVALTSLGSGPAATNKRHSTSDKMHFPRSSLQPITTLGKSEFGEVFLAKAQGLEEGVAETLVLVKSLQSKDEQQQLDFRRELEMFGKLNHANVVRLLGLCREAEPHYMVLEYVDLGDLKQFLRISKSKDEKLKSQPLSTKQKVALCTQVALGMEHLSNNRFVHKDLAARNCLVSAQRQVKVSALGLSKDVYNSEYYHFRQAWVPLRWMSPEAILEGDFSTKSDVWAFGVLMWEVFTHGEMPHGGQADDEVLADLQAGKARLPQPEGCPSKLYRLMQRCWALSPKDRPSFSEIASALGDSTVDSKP
Description: cell-based or functional assay.

For assay [2], the target named is T2, PTK7 on PTK7 positive cell line SaOS-2 …. Kind of assay: cell-based or functional assay. The source holds these as a separate data set.

This note sets out measurements from patent publication US20210347913A1 (CRISPR THERAPEUTICS, published 2021).

Substitutions are numbered along the chain they refer to.

B1: mask peptide M4 (peptide)
peptide: CTFPNTTMQRTFC
notes: Found by phage display (Screen 2); in the masked constructs preceded by QG and fused through a cleavable linker
For B1, the binding result with anti-PTK7 antibody Ab181 was “binds”.

B2: mask peptide M9 (peptide)
peptide: CHIGKRPVPCLWI
notes: as for B1
As for B2, in the assay with anti-PTK7 antibody Ab181, the binding result is listed as “binds”.

B3: mask peptide M10 (peptide)
peptide: CYIGLRMVPCFHM
notes: as for B1
As for B3, the binding result in the assay with anti-PTK7 antibody Ab181 was “binds”.

B4: mask peptide M6 (peptide)
peptide: VCTYPPAHRTRFC
notes: as for B1
For B4, the binding result with anti-PTK7 antibody Ab181 was “binds”.

B5: mask peptide M8 (peptide)
peptide: WCTIPSSMSIRLC
notes: as for B1
Consider B5, for which the binding result with anti-PTK7 antibody Ab181 is “binds”.

B6: mask peptide M5 (peptide)
peptide: CTYPSWVAYIRFC
notes: as for B1
Turning to B6, the binding result with anti-PTK7 antibody Ab181 is recorded as “binds”.

B7: mask peptide M11 (peptide)
peptide: CTMPSHAVASFLC
notes: as for B1
For B7, the binding result with anti-PTK7 antibody Ab181 is reported as “binds”.

B8: mask peptide M14 (peptide)
peptide: CTHVAQWAIKAFC
notes: as for B1
Consider B8, for which the binding result in the assay with anti-PTK7 antibody Ab181 is recorded as “binds”.

B9: mask peptide M13 (peptide)
peptide: CTYPPRFHMHWLC
notes: as for B1
For the molecule B9, in the assay with anti-PTK7 antibody Ab181, the binding result is on record as “binds”.

B10: CTX181.M3 (other)
chain: QGCTMPPSPRSKVICGSSGGSGGSGGSGGGPLGLAGGSSGQVQLVESGGGVVQPGRSLRLSCAASGFTFSSYGMHWVRQAPGKGLEWVAVIWDDGSNKYYVDSVKGRFTISRDNSKNTLYLQMNSLRAEDTAVYYCARDDYYGSGSFNSYYGTDVWGQGTTVTVSSGGGGSGGGGSGGGGSEIVLTQSPATLSLSPGERATLSCRASQSVSIYLAWYQQKPGQAPRLLIYDASNRATGIPARFSGSGSGTDFTLTISSLEPEDFAVYYCQQRSNWPPFTFGPGTKVDIKSAAAFVPVFLPAKPTTTPAPRPPTPAPTIASQPLSLRPEACRPAAGGAVHTRGLDFACDIYIWAPLAGTCGVLLLSLVITLYCNHRNRSKRSRLLHSDYMNMTPRRPGPTRKHYQPYAPPRDFAAYRSRVKFSRSADAPAYQQGQNQLYNELNLGRREEYDVLDKRRGRDPEMGGKPRRKNPQEGLYNELQKDKMAEAYSEIGMKGERRRGKGHDGLYQGLSTATKDTYDALHMQALPPR
On to B10, for which, in assay [1], the “IFNγ (pg/mL) at E:T = 1:0.5” value stood at 833 pg/mL and the “IFNγ (pg/mL) at E:T = 1:1” value was found to be 799 pg/mL. In addition, in assay [2], the “% Cell killing at E:T = 1:0.5” value was found to be 39% and the “% Cell killing at E:T = 1:1” value worked out at 17.8%.

B11: CTX181.M12 (other)
chain: B10 chain with P7V, S8H, P9T, R10Y, K12Q, V13W, I14L
In the case of B11, in assay [1], the “IFNγ (pg/mL) at E:T = 1:0.5” value was determined as 2420 pg/mL and the “IFNγ (pg/mL) at E:T = 1:1” value stood at 1770 pg/mL. In assay [2], the “% Cell killing at E:T = 1:0.5” value came to 29.5% and the “% Cell killing at E:T = 1:1” value was 18.5%.

B12: mask peptide M12 (peptide)
peptide: CTMPVHTYSQWLC
notes: as for B1
For the molecule B12, in the assay with anti-PTK7 antibody Ab181, the binding result is listed as “binds”.

B13: mask peptide M3 (peptide)
peptide: CTMPPSPRSKVIC
notes: as for B1
As for B13, the binding result in the assay with anti-PTK7 antibody Ab181 is “binds”.

B14: mask peptide M7 (peptide)
peptide: CTMPYHIHSIGLC
notes: as for B1
In the case of B14, the binding result in the assay with anti-PTK7 antibody Ab181 was “binds”.
